Assays:
[1] = target: bat RsSHC014 spike protein (Bat SARS-like coronavirus RsSHC014, UniProt U5WLK5); assay: ELISA
SARS-CoV-2 RBD = SARS-CoV-2 RBD (SARS-CoV-2, UniProt P0DTC2); assay: ELISA

B1: DH1047 IgG (antibody, V domains shown)
VH: QVQLVQSGAEVKKPGASVQVSCQASANTFTNHYIHWVRQAPGQGLEWMGIIYPTGGNTIYAQGFQGRVTMTRDTSLNTIYLELSSLRSEDTAVYYCARDVRVDDSWSGYDLLSGGTYFDYWGQGTLVTVSS
VL: not shown
- binding result [1]: binds
- binding result (SARS-CoV-2 RBD): binds

— PMC8899823 (Science translational medicine, 2022)
